Test results published in US20210292423A1 (published 2021).
Positions count from the first letter of the chain named.

B1: 6C9-C9 anti-CD3 antibody (hybridoma supernatant) (antibody, V domains shown)
VH: AVQLVESGGGLVRPKESLKISCAASGFTFRNAAMYWVRQAPGKGLEWVARIRTQPNNYAKYYADSVKDRFTISRDDSKSMVYLQMDNLKTEDTAMYYCTGLVVTAMDAWGQGTSVTVSS
VL: DIQMTQSPSFLSASVGDRVTINCKASQNINKYLNWYQQKLGEAPKLLIYVTNNLQTGIPSRFSGSGSGTDYTLTISSLQPEDVATYFCLQHRSMYTFGTGTKLELK
notes: rat IgG in hybridoma supernatant
B2: 11F9-F8 anti-CD3 antibody (hybridoma supernatant) (antibody, V domains shown)
VH: EVQLVETGGTLVQPGKSLKLTCATSGFTFSNAWMHWVRQSPEKQLEWVAQIKAKSNNYATYYAESVKGRFTISRDDSKTSVYLQLNSLREEDTAIYYCRGTQYGYNPFDYWGQGVMVTVSS
VL: DVVLTQTPVSLSVSLGGQVSISCRSSQSLVHNNGNTYLSWSLQKPGQSPQVLIYKVSNRFSGISNRFSGSGSGTDFTLKISRVEPDDLGVYYCGQGAHYPFTFGSGTKLEIK
notes: as for B1
B3: 11F3-B9 anti-CD3 antibody (hybridoma supernatant) (antibody, V domains shown)
VH: EVQLVETGGSLVQPGKSLTLTCATSGFTFSNAWMHWVRQSPEKQLEWVAQIKAKSNNYATYYAESVKGRFTISRDDSKRSVYLQMNSLKEEDTAIYYCRYVNYGLAPMDVWGQGTSVTVSS
VL: B2 VL with L4M, N32D, S41Y, V51L, I63F, N65D, A97T, H98Q, S105A, I111L
notes: as for B1
B4: 11D7-C3 anti-CD3 antibody (hybridoma supernatant) (antibody, V domains shown)
VH: EVQFVETGGSLVQPGKSLKLTCATSGFTFSNAWMHWVRQSPEKQLEWVAQIKAKSNNYATYYAESVKGRFTISRDDSKSSVYLQMNSLKEEDTATYYCRGLYYGLSPSDYWGQGVMVTVSS
VL: B2 VL with L4M, S41Y, V51L, N65D, A97T
notes: as for B1
B5: 12G3-E8 anti-CD3 antibody (hybridoma supernatant) (antibody, V domains shown)
VH: EVRVVETGGSLVQPGKSLKLTCATSGFTFSLAWMHWVRQSPEKKLEWVAQIKDKANNYATYYAESVKGRFTISRDDSKRSVYLQMNRLKEEDTAIYYCRGVYYGFSMTPFDYWGQGVMVTVSS
VL: B2 VL with V3A, L4M, S41Y, N65D, T74A, A97T, H98Q, S105A, I111L
notes: as for B1
B6: 4B4-D7 anti-CD3 antibody (hybridoma supernatant) (antibody, V domains shown)
VH: EVQLVETGGRLVQPGRSLKLTCATSGFTFSNAWMHWVRQSPEKQLEWVAQIKARSNNYATYYAESVKGRFTISRDDSKSTIYLQMNSLKEEDTAIYYCRGTYYASKPFDYWGQGVMVTVSS
VL: B2 VL with L4M, N32D, K44R, I63T, N65D, S68T, A97T, H98Q
notes: as for B1
B7: 10F4-C10 anti-CD3 antibody (hybridoma supernatant) (antibody, V domains shown)
VH: B4 VH with F4L, L20I, V81I, T95I, G100A, L101V, Y102N, L105N, S106Y, S108L
VL: B2 VL with L4M, S41C, V51L, N65D, A97T, H98Q, S105A, I111L
notes: as for B1
B8: 3H6-D2 anti-CD3 antibody (hybridoma supernatant) (antibody, V domains shown)
VH: EVQLVETGGRLVQPGKSLKLTCATSGFTFSNAWMHWVRQSPEKQLEWVAQIKDKSNNYATYYAESVKGRFTISRDDSKSIIYLQMNSLKEEDTAIYYCRALTYYGYKRDAMDGWGHGTSVTVSS
VL: B2 VL with L4M, S41Y, V51L, N65D, A97T, H98Q, S105A, I111L
notes: as for B1
B9: 4E7-C9 anti-CD3 antibody (hybridoma supernatant) (antibody, V domains shown)
VH: EVQVVETGGSLVQPGKSLKLTCATSGFTFSNAWMHWVRQSPEKQLEWVAQIKDKSNNYATYYAESLKGRFTISRDDPKRSIYLQMNSLREEDTAIYYCRYVHYGIGYAMDAWGQGTSVTVSS
VL: B2 VL with L4M, V30E, S41Y, V51P, N65D, A97T, H98Q, S105P, I111L
notes: as for B1
B10: 16F8-A7 anti-CD3 antibody (hybridoma supernatant) (antibody, V domains shown)
VH: VETGGNLVQPGKSLKLTCATSGFTFSNAWMHWVRQSPEKQLEWVAQIKAKSNNYATYYAESVKGRFTISRDDSKSSVYLQMNSLKEEDTAIYYCRYVNYGLAPMDVWGQGTSVTVSS
VL: B2 VL with L4M, S41Y, V51L, I63F, N65D, A97T, H98Q, S105A, I111L
notes: as for B1
B11: 20E5-F10 anti-CD3 antibody (hybridoma supernatant) (antibody, V domains shown)
VH: EVQLVETGENLVQPGKSLRLTCATSGFSFSNAWMHWIRQSPEKQLEWVAQIKDKSNNYATYYAESVNGRFTISRDDSKSSIYLHMDNLKEEDSAIYYCRYVHYGVRFFYTMDVWGQGTSVTVSS
VL: B2 VL with L4M, G17D, S25P, S41Y, Q50H, V51P, N65D, A97T, H98Q
notes: as for B1
B12: 10E6-G6 anti-CD3 antibody (hybridoma supernatant) (antibody, V domains shown)
VH: B2 VH with T10G, P14S, F29V, S30T, A59E, T79S, L85M, R89K
VL: B2 VL with L4M, T7S, N35Y, S41Y, L52F, N65D, V83I, A97T
notes: as for B1
B13: 13C1-F6 anti-CD3 antibody (hybridoma supernatant) (antibody, V domains shown)
VH: B2 VH
VL: DVVMTQSPVSLSVSLGGQVSISCRSSQSLVHNNGNTYLSWYLQRSGQSPQLLIYKVSNRLSGISDRFSGSGSGTDFTLKISRIEPDDLGVYYCGQGTQYPFTFGSGTRLEIK
notes: as for B1
B14: 13H2-C3 anti-CD3 antibody (hybridoma supernatant) (antibody, V domains shown)
VH: B3 VH with V2E, Q3E, T19K, E42D, R79S, S87N, N102H, V110A
VL: B13 VL with S7T, R44K, S45A, L60F, T77I, I83V, Y91F, S105A, R108K, I111L
notes: rat IgG in hybridoma supernatant; also called 13H2-C2
B15: 18H11-F10 anti-CD3 antibody (hybridoma supernatant) (antibody, V domains shown)
VH: EVQLVESGGGLVQPGRSLKLSCAASGFIFSDYYMAWVRQAPKKGLEWVATISISGSRTYYPDSVKGRFTVSRDNAKSSLYLQMNSLKSEDTATYYCATNNPGGWFVYWGQGTLVTVSS
VL: NIQMTQSPSLLSASVGDRVTLSCKAGQNINNDLAWYQQKLGEAPRLLIYNANSLQTGIPSRFSGSGSGADFTLTISSLQPEDVATYFCQQYSSGDTFGAGTKLELK
notes: as for B1
B16: 8H2-F3 anti-CD3 antibody (hybridoma supernatant) (antibody, V domains shown)
VH: QIQLVQSGPELKKPGESVKISCKASGYTFTDFAMNWVKQAPGNGLKWMGWINTQTGKPTYADGFKQRFVFSLETSASTIYLQINNLNIEDTATYFCTRGALASVGQGVMVTVSS
VL: DVVMTQTPVSLSVAIGQPASISCKSSQSLVGTSGKTYLNWLLQRPGQSPKRLIYLVSKLDSGIPDRFSGSGSETDFTLKISRVETDDLGVYYCLQGSHFPLTFGSGTKLEIK
notes: as for B1
B17: CODV-Fab 7G3 × 20G6 with humanized 20G6 VL1A_VH1A (bispecific antibody)
light: DIVMTQTPLSLSVTPGQPASISCKSSQSLVHNNGNTYLSWYLQKPGQSPQLLIYKVSNRFSGVPDRFSGSGSGTDFTLKISRVEAEDVGVYYCGQGTQYPFTFGQGTKLEIKGQPKAAPDFVMTQSPSSLTVTAGEKVTMSCKSSQSLLNSGNQKNYLTWYLQKPGQPPKLLIYWASTRESGVPDRFTGSGSGTDFTLTISSVQAEDLAVYYCQNDYSYPYTFGGGTKLEIKTKGPSRTVAAPSVFIFPPSDEQLKSGTASVVCLLNNFYPREAKVQWKVDNALQSGNSQESVTEQDSKDSTYSLSSTLTLSKADYEKHKVYACEVTHQGLSSPVTKSFNRGEC
heavy: EVQLQQSGPELVKPGASVKMSCKASGYTFTDYYMKWVKQSHGKSLEWIGDIIPSNGATFYNQKFKGKATLTVDRSSSTAYMHLNSLTSEDSAVYYCTRSHLLRASWFAYWGQGTLVTVSASQVQLVESGGGVVQPGRSLRLSCAASGFTFTKAWMHWVRQAPGKGLEWVAQIKDKSNSYATYYADSVKGRFTISRDNSKNTLYLQMNSLRAEDTAVYYCRGVYYALSPFDYWGQGTLVTVSSRTASTKGPSVFPLAPSSKSTSGGTAALGCLVKDYFPEPVTVSWNSGALTSGVHTFPAVLQSSGLYSLSSVVTVPSSSLGTQTYICNVNHKPSNTKVDKKVEPKSCDKTHTHHHHHH
B18: CODV-Fab 7G3 × 20G6 with humanized 20G6 VL1D_VH1D (bispecific antibody)
light: B17 light with L51S, Q105S, L109V
heavy: B17 heavy with G165Q, N197D
notes: same V domains as hz20G6x7G3 but the other order
B19: CODV-Fab 7G3 × 20G6 with humanized 20G6 VL1B_VH1A (bispecific antibody)
light: B17 light with Q105G, L109V
heavy: B17 heavy
B20: CODV-Fab 7G3 × 20G6 with humanized 20G6 VL1C_VH1D (bispecific antibody)
light: B17 light with G34A, L51S, Q105S, L109V
heavy: B17 heavy with G165Q, N197D
B21: CODV-Fab 7G3 × 20G6 with humanized 20G6 VL1D_VH1C (bispecific antibody)
light: B17 light with L51S, Q105S, L109V
heavy: B17 heavy with G165Q, D185A, N197D

What follows are binders tested against T1, human CD3ε/δ-Fc fusion protein (soluble recombinant CD3ε/δ complex) (human, UniProt P04234 22-105) (assay: SPR single point, hybridoma supernatant).
T1 construct: also called huCD3ε/δ; huCD3; not shown: hinge, CH2, CH3 of human IgG with tag
T1 sequence (chain, as listed by the source mutant, chain 1 of 2): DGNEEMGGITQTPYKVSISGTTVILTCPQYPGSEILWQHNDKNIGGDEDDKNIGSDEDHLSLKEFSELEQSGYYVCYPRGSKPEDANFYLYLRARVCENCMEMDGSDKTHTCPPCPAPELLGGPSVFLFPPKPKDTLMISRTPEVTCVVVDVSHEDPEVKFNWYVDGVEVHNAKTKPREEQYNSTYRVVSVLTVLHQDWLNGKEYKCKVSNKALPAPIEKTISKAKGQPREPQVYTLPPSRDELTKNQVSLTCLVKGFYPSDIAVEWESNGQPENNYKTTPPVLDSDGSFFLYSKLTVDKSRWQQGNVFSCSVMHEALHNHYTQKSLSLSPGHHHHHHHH
T1 sequence (P04234 22-105, stated change not applied, chain 2 of 2): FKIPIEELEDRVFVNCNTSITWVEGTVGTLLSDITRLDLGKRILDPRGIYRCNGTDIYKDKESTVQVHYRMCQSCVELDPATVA
Description: Rats with positive sera were scarified and B cells were fused with mouse myeloma cells. The resulting hybrndomas were screened on HEK293 cells transfected with human or cynomoligus CD3ε and CD3δ expression plasmids, on Jurkat E6.1 (CD3+) and Jurkat T3.5 (CD3-) by flow cytometry. Supernatant of Hybridoma clones was used to assess by surface plasmon resonance single point kinetic against human and Macaca fascicularis CD3ε/δ complex by fixing the analyte at 25 nM (data presented in table 3).

Compared with B1, B2 is lower in “RU at 25 nM” value: 26 RU for the first, 11.5 RU for the second.

Going from B3 to B4, the “RU at 25 nM” value falls from 22 RU to 17 RU.

Going from B5 to B6, the “RU at 25 nM” value falls from 24 RU to 11 RU.

Going from B7 to B8, the “RU at 25 nM” value falls from 22 RU to 9.5 RU.

Going from B9 to B10, the “RU at 25 nM” value rises from 2.5 RU to 17.5 RU.

Going from B11 to B12, the “RU at 25 nM” value falls from 12 RU to 10.5 RU.

First: B13
Second: B14
The “RU at 25 nM” value of the first is higher: 17 RU for the first, 16 RU for the second.

Going from B15 to B16, the “RU at 25 nM” value falls from 35 RU to 32.5 RU.

The binders below were run against T1, human CD3ε/δ-Fc fusion protein (soluble …) (assay: SPR Biacore, CODV-Fab on recombinant CD3ε/δ).
Description: Binding affinities of anti-CD3 binding Fabs or CODV-Fabs were measured by surface plasmon resonance (SPR) using a Biacore3000 instrument (GE Healthcare). Assay buffer was HBS-EP (BR-1001-88, GE Healthcare). Capture of CD3ε/δ-Fc fusion proteins was achieved using the human antibody capture kit (GE Healthcare). […] The CD3εδ-Fc fusions proteins were captured at 10 μl/min to approx. 70 RU to yield Rmax values of 30 RU. Binding kinetics with the anti-CD3 Fabs or CODV-Fabs was measured at 30 μl/min for 240 sec. and 600 sec. for association and dissociation phase, respectively. Twofold dilutions of Fabs from 3 to 400 nM in assay buffer were used. All Fab concentrations were run in duplicate together with duplicate buffer blanks for double referencing. Regeneration of the capture surface was performed with a 1 min injection of 3M MgCl2 solution at 30 μl/min. For data analysis the BIAevaluation software v.4.1 (GE Healthcare) was used. Data were fit globally using a 1:1 Langmuir model with mass transfer.

First: B17
Second: B18
The Kd of the first is 4.9-fold higher: 152 nM for the first, 31 nM for the second. The second binds more tightly here.

Compared with B19, B20 is 3.1-fold lower in Kd: 138 nM for the first, 44 nM for the second. The second binds more tightly here.

For B21, the Kd was 32.1 nM.

Going from B17 to B18, the koff falls from 0.00434 s⁻¹ to 0.000746 s⁻¹ (5.8-fold).

Going from B19 to B20, the koff falls from 0.00414 s⁻¹ to 0.00101 s⁻¹ (4.1-fold).

Binder B21 has a koff of 0.000713 s⁻¹.

B17 and B18 are within 1.5-fold of each other in kon: 28600 M⁻¹ s⁻¹ for the first, 24000 M⁻¹ s⁻¹ for the second.

B19 and B20 are within 1.5-fold of each other in kon: 29900 M⁻¹ s⁻¹ for the first, 23000 M⁻¹ s⁻¹ for the second.

B21 showed a kon of 22200 M⁻¹ s⁻¹.
